Measurements: the DeepSol protein solubility set

Assay: soluble on expression in E. coli; label from the status in PepcDB or PDB records

Sequence	soluble on expression in E. coli
MGSDKIHHHHHHMEIVLAKRAGFCFGVKRATQMAFEAAEKEGETFTLGPIIHSPQVVQRLEGMGVKVLSDLEGIGNGTVIIRSHGVTSAELEDAVRRQLEVVDATCPFVKKAQEHVKRLSHDGYTVVVVGDADHPEVQGIVSYAEGPVHVVGSGEEAARLPNMKKVGVVAQTTQSFETLKNVVKECLLKGGEIRVFNTICDATAVRQDEAKALAREVDCMIVIGGFNSANTKRLAEVCSELQPRTYHIETAQELDASWFQGVERVGVTAGASTPKWLIDEVIERIQEFDNKKKG	not soluble
MSLNFHDVRFPPSLSFGSLGGPQRRTDVVTLANGYEERNTPWAHSRRVYDAGLGMRSIDDVQALTGFFEARMGQMYGFRWKDWADFKSCASSVGVTFEDQSLGFGDGVRTDYQLVKTYSSGGHSYVRPITKPVAGTVRVGIEQDALQEGSDYEVDLSTGIIRFAHAPDPEMQVSAGFEFDVPVRFDTDRILVSVASFQAGQVPDVPVIEVRVEGHHHHHH	soluble
SLEKHSWYHGPVSRNAAEYLLSSGINGSFLVRESESSPGQRSISLRYEGRVYHYRINTASDGKLYVSSESRFNTLAELVHHHSTVADGLITTLHYPAPKRNKPTVYGVSPNY	soluble
GVSKEEYKDVETAKKEKEQLGELMEPALGYVVKVPVSSFENKKVDISDIEVITNGNLDDVPYKANSSKYNYPDIKTKDSSLQYVRSGYVIDGEHSGSNEKGYVYYKGNSPAKELPVNQLLTYTGSWDFTSNANLNNEEGRPNYLNDDYYTKFIGKRVGLVSGDAKPAKHKYTSQFEVDFATKKMTGKLSDKEKTIYTVNADIRGNRFTGAATASDKNKGKGESYNFFSADSQSLEGGFYGPKAEEMAGKFVANDKSLFAVFSAKHNGSNVDTVRIIDASKIDLTNFSISELNNFGDASVLIIDGKKIKLAGSGFTNKHTIEINGKTMVAVACCSNLEYMKFGQLWQQAEGGKPENNSLFLQGERTATDKMPKGGNYKYIGTWDAQVSKENNWVATADDDRKAGYRTEFDVDFGNKNLSGKLFDKNGVNPVFTVDPKIDGNGFTGKAKTSDAGFALDSGSSRYENVKFNDVAVSGGFYGPTAAELGGQFHHKSENGSVGAVFGAKQQVKK	soluble
MGSDKIHHHHHHCQNAAATDTNQSVSAKLQQQALSSSLAYDIVESLTVEVGPRLAGSDKDLVAVEWAEKKLGSLGFDKVYKEAVQVPVWQRGEAKANIVSPYAQPLVITALGGSVGTPEEGISAPIVRFETLDELKQADPSLVAGKIVFIDHITPRFKTGKGYGMTVGGRSRGAIAAAEKGALAIVIRSIGTDHDRMAHTGMMRYQEGVDKIPAAAMSNPDADLVTLMLKRDPNVVLHLEMSPKNLGYATSYNVIAEVTGSSKPDEIVLIGAHLDSWDEGTGAIDDGAGVAIVTAAGHYISQLRVKPARTVRVVLYAAEELGLIGGKSYAKDHQAELAQHYIAAESD	not soluble
MGSDKIHHHHHHMIKELKTLIAVAREGTFAAAGDRIGLTQAAVSAQMQRLEAQLGVELFDRKGRSAQLNRMGQQVLLQGQELVRLYGSLGNSATGSAPNVLVTIGAIASVQRSFLPDALALFHRQFPQCRTRVIPGLSMDLVNQVDAGEVDLAAIIRPPFSLHSDLRWTTLMREPYRLIVPADLQGEDWAELISSQPFIRYDRSSFGGRQVDRFLRQTHVSLREVCELDELDAIVKLVANGVGVALVPETATIQAWPAGVRAVNLGPHTFHRDIGLVHRARRSLTEPVNVLAQLLTAQVQDTQ	not soluble
MSNVLTEIDSQYPYMTKNEKKIAKFILNSPQKVIKMRSQDLASLLDISTSSVIRFSKKITDGGFHDLKINISKYVPKASSIYNVELMNNESTESLRTKLHTRTTRALNHANNELNDKTIDQICHCLKRSETIFIYGFGASFVVATDLYQKLSRIGLNIQLVQETHIFATLLATHNSNDSVILITNNGTQSEMQSMVKVIDDYHIPIITITSTRDNPVAQASNIVLTYGKTDENEMHMGATTSLFAQMFTIDILYYRYVALNYHASLDFITQSKMALDNYRKHLSNINFKH	not soluble
GPHMVIRAEKMEAVTHLAASISHEIRNPLTAARGFIQLIEEQPLAADKRRQYARIAIEELDRAEAIITDYLTFAKPAPETPEKLNVKLEIERVIDILRPLANMSCVDIQATLAPFSVIGEREKFRQCLLNVMKNAIEAMPNGGTLQVYVSIDNGRVLIRIADTGVGMTKEQLERLGEPYFTTKGVKGTGLGMMVVYRIIESMNGTIRIESEIHKGTTVSIYLPLASSPSSSTISDKEKQLFAAL	soluble
GMKPIKEIADQLELKDDILYPYGHYIAKIDHRFLKSLENHEDGKLILVTAVTPTPAGEGKTTTSIGLSMSLNRIGKKSIVTLREPSLGPTLGLKGGATGGGRSRVLPSDEINLHFTGDMHAVASAHNLLAAVLDSHIKHGNELKIDITRVFWKRTMDMNDRALRSIVIGLGGSANGFPREDSFIITAASEVMAILALSENMKDLKERLGKIIVALDADRKIVRISDLGIQGAMAVLLKDAINPNLVQTTEGTPALIHCGPFANIAHGTNSIIATKMAMKLSEYTVTEAGFGADLGAEKFIDFVSRVGGFYPNAAVLVATVRALKYHGGANLKNIHEENLEALKEGFKNLRVHVENLRKFNLPVVVALNRFSTDTEKEIAYVVKECEKLGVRVAVSEVFKKGSEGGVELAKAVAEAAKDVEPAYLYEMNDPVEKKIEILAKEIYRAGRVEFSDTAKNALKFIKKHGFDELPVIVAKTPKSISHDPSLRGAPEGYTFVVSDLFVSAGAGFVVALSGDINLMPGLPKKPNALNMDVDDSGNIVGVS	soluble
MAVSHSVKERTISENSLIILLQGLQGRVTTVDLRDESVAHGRIDNVDAFMNIRLAKVTYTDRWGHQVKLDDLFVTGRNVRYVHIPDDVNITSTIEQQLQIIHRVRNFGGKGQGRWEFPPKNCK	not soluble
MRLERVLEEARAKGYPIEDNGLGNLWVVLPRERFKEEMAHYKAMGFNFLADIVGLDYLTYPDPRPERFAVVYELVSLPGWKDGDGSRFFVRVYVPEEDPRLPTVTDLWGSANFLEREVYDLFGIVFEGHPDLRKILTPEDLEGHPLRKDYPLGETPTLFREGRYIIPAEFRAALTGKDPGLTFYKGGSRKGYRSLWADLKKAREVKGLEHHHHHH	not soluble
SALSSAASLLGSPLTNDFAVISMSDLLTPLDTIMKRVEAFAKADIVTVIYNPRGSRFPDNIRKAVDIFLRYRNPETAVGIVRNAYRERQSVTITTLSNLNIEDIDMLTTVIIGNSETF	not soluble
MAFSGSQAPYLSPAVPFSGTIQGGLQDGLQITVNGTVLSSSGTRFAVNFQTGFSGNDIAFHFNPRFEDGGYVVCNTRQNGSWGPEERKTHMPFQKGMPFDLCFLVQSSDFKVMVNGILFVQYFHRVPFHRVDTISVNGSVQLSYISFQNPRTVPVQPAFSTVPFSQPVCFPPRPRGRRQKPPGVWPANPAPITQTVIHTVQSAPGQMFSTPAIPPMMYPHPAYPMPFITTILGGLYPSKSILLSGTVLPSAQRFHINLCSGNHIAFHLNPRFDENAVVRNTQIDNSWGSEERSLPRKMPFVRGQSFSVWILCEAHCLKVAVDGQHLFEYYHRLRNLPTINRLEVGGDIQLTHVQT	soluble
MFSPLGQFKHIVCPFLRTGRKCQSRNCFFSHDFQNSTKISPPYSENVEGYPKVKIEKSLPYKYDNCKLSICVPIVTTCIPYHSVENLNFNIRQNISTTLNLEKTNDSIKETKNENFRMDVLETYKCKQLNHQTTHLPTNTVLKKRSLFNDAISIVPNKKKQLVSAISTNSDSQGASSNIIPTPKYDSNSPAGHELRKRMTHLLYESYKDLGYSNAESSMLALLDEKNICETANSKMIYSSSCKSKILSLKKAPKKNEIQGSTPDEKLESLVHSEEELILWGYNIGDVAPVNPPDELRECDRCGTRFADPRGPCTYHWGKLFREKQGGEKIRTYTCCGVKEGDSSGCIIEDNHVFKYRHLPYLASVHPFSYLPDSTNSKQLSHCALDCELCYTTNGMELARLTVVAKESIIMDVFIKPKGKILSLNTRFSGIHDAKELESGITMDQMYIKIKELGMNKNTILIGHGLENDLNAMRLIHKRVIDTALLFTHARGPPFRYSLKYLTKKYLGTTIQTSTHDSEEDAVSALQLVFYKTKSNESQN	soluble
MPTTQINIVLAEPRCMAGEFFNAKVLLDSSDPDTVVHSFCAEIKGIGRTGWVNIHTDKIFETEKTYIDTQVQLCDSGTCLPVGKHQFPVQIRIPLNCPSSYESQFGSIRYQMKVELRASTDQASCSEVFPLVILTRSFFDDVPLNAMSPIDFKDEVDFTCCTLPFGCVSLNMSLTRTAFRIGESIEAVVTINNRTRKGLKEVALQLIMKTQFEARSRYEHVNEKKLAEQLIEMVPLGAVKSRCRMEFEKCLLRIPDAAPPTQNYNRGAGESSIIAIHYVLKLTALPGNGVLY	not soluble
YAGTSDAPYTGGFMNTFNYRNWELNLNFSYNLGAHVKTDPTYYIADPDPGRNMNRDILDRWTPENKNGKFPALTSLNTNPADYYLFSTRRDLYKSLDIWVKKLSYIRLQNIRLAYHFPSEWLHKLNIGGATVGLEARNLFVFGSSYKNYMDPESMSNLYSTPVPKSVTFNLSLNF	not soluble
MAKTKDKSIFVSSVDSDSDIEEIIMPPKPPVEVIQLDDSDDECQDICKPIYNKKVHKDPIVRVSYRQRIPESYFPGISTSLINVQREHNNRSKYDTWGSNSCSEPRISISNIERLEKPSYHEARRVPVFERLERSREISNGRNNQNPIRFNHKFVPPINRQTPLFNNQQLLVNVPFNEHHPTFLEPRPFYRSNVNEYNAGGLNRGSFRKMGRLNMEIVRDNDDFEEHFLAPNFPAKSASIDRRVDDSLSSNSYLRSGMIMASSERLEDPRFSGRLPVFARQINNQEINNDNFYQNSICYNHNNYPSNLESRVSFPFEARHHDADGLNRGRYQVMEHVNMGIMRNSEDFEDYDITQTDQDNHFYNDKDSGKHHRHRHRSKNNKKHKKHYDRNESGNSSECREEDDYEISNPSEKRHERKKRQRSSHRKESACVDEDNYILDEDRFYQQESDEYHNSLEMEREYEHGMDVGVKKEHSYKCDDIARNARKRARLTDDDMARREELFKEWSYSKEIVDGVTQLFGGPPRESERHQKKQKELVFEADRTAMHALSIRSGALVKARLLEIHYATGCHLIFLEEVKRGGYTYVELKGDPEHIKNAQKMIDDMVIDEHYIHDGRESIVYFYNAPHELRNTRGFDLNCRSIEKYCGIIIEKMREVFGIGGYVSTAPLKLTGSVNSIHMARETMQSKTKRFLDEEKFKETVEHCTPISFYRKIIGRCGENLKTIEKVTRTAIVFKRSFDNNEACFSIRGRTDNIKQAIEKIEEITHENQPADDDPGIFQVRVPENMVARLIGRHGVEINRIRSESKAKCYLNAIRGNLDDKFMVCSGGVEEAAYAAYLTKVKIGIIDPKVIQFNSDDFNNLSKVKPMEDPRLVMLKKRYAERKECK	soluble
MAHHHHHHMGVDVGESAIGVDAVARPIGYGPFSAAAKARLAREKAHKAVETCDSAAAAASATVMKNVSLDTNLYLRLSLAGLPHPSQLQEWAYTSPEWRLAFVRLYRTILRLHNKAVAVSLRTARRQGSEAALSAATGMRATSQTTVAGAAVAATGADNSLAEDKDDYFLRYLLTPDQQEFGNRFVQEEFARHTDADAVAASIFYASWYEYVLQLASGVTAREMTEKEKRILTDEQKETLNSLRSAFLDLRSSQRPKYMP	not soluble
MDIGTQLKFLRNRRGWTMQEVADRIGKNDSTYSGYETNKRKPNAEVLVQLADIFDTTTDFILGRTENPNGLNFNVKDFLDQGRLHSDGVEITDEQAEIANVLLRQLLQRKQQ	not soluble
MAEHRSMQRAALLDAARSLLSDGGTEALTFPALAERTGLARSSVYEYFRSRAAVVEELCAVDFPVWAAEVEAAMERETAPDAKVEAYVRTQLDLVGDRRHRAVVAISASELDAGAREKIRAAHGGLIAMIVEALGEMGHGQPRLAAMLLQGVVDAAVRRIELGAAEEPGAITEAAVSMALRGVRG	not soluble
